In the supplement of paper PMC10065799, “High-throughput profiling of sequence recognition by tyrosine kinases and SH2 domains using bacterial peptide display” (eLife, 2023):

molecular target: Hck (UniProt P08631); assay: phosphorylation enrichment, bacterial display (enrichment ratio); higher = better substrate or ligand; peptides without Tyr show the background
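Also: 11-residue human phosphosite peptides and single-mutation variants displayed on the E. coli surface, counted by deep sequencing, each peptide's frequency after selection divided by its frequency in the unselected input library; frequency after pTyr selection over input frequency; kinase dosed for 20-30% of maximal phosphorylation in three min.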

Chain of Hck (P08631 whole entry, looked up): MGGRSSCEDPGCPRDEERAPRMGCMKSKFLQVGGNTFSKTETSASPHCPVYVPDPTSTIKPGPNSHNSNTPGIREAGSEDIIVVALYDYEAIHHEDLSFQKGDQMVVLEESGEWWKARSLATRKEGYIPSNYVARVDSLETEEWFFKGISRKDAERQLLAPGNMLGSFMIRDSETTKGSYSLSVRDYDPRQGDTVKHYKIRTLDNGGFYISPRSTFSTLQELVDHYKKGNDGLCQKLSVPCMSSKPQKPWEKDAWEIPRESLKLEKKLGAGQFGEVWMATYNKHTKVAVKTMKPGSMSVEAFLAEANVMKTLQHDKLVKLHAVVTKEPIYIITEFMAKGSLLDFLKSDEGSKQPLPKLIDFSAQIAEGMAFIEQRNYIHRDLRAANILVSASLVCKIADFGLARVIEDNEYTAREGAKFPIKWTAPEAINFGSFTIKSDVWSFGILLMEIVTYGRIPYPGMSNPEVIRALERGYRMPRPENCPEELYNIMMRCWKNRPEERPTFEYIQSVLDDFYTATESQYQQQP

Sequence	phosphorylation enrichment
LEVETYRRLLD [KRT12_Y429_I426V]	0.511
KGKLIYLLRDS [NXPE1_Y350_G353R]	0.599
AAVLNYKAGRD [GRIN2A_Y737]	0.322
QVMDGYPIPIG [MMP14_Y353_M355I]	0.566
CSHKFYGKQCC [ADAMTS16_Y1211]	0.415
MHDSNYVSKGS [PDGFRA_Y849]	0.554
KDLPNYNWKSF [KISS1_Y112_N115K]	0.439
RREGVYRNNID [PTEN_Y46_L42R]	0.461
FLNSIYQSRDE [ROS1_Y2227_K2228Q]	4.33
FSAGTYPRMEE [SYCN_Y108_L111M]	0.322
PSSNLYFRWLT [CNGA3_Y168_YF]	1.38
IDAVCYFRMEN [NPHS2_Y194_I192V_YF]	0.903
HNVAIYEGYAL [ACTC1_Y168_P166A]	12.8
DEDFLCREELA [POR_Y575_Y575C_YF]	0.629
YEEDSYSHVMA [FDPS_Y388_I391V]	0.606
ASTHVYQIMNH [ITK_Y588]	2
EDGFAYVPLKD [PRIM2_Y208]	0.519

Sequence	phosphorylation enrichment
DDSSAYRSVDE [BCKDHA_Y345]	0.553
ARVDTYCRHNF [HLA-DRB1_Y107_A103R_YF]	0.45
LTFHMYADPNI [SOS1_Y618_F623I_YF]	0.799
FGMQLYQKFMH [GRB14_Y347_N349K_YF]	2.16
ADYYDYGRGLS [KHDRBS3_Y304_H306R]	7.62
EMFNPCYGLFE [NEDD4L_Y679_Y679C]	1.43
QGFDTYFGYLL [ARSB_Y165_R160Q]	8.44
SENYTYIWWLN [PSG4_Y271_K267E]	0.485
NRLNDYIFSFD [RARS1_Y516]	0.469
KPLMPYMRYSR [SMARCE1_Y73]	0.435
RPYRPYIIRGM [LRP5_Y1531]	1.04
SSWPGYVRPLP [HSPB1_Y54]	0.485
FRARAYSFRGP [CHGA_Y381_G382S]	0.455
PQGVGYPPQQQ [EP300_Y2219]	0.612
RGYRQDAYDGK [HLA-A_Y140]	0.591
SVTYTYSPALN [TP53_Y126_C124Y]	1.17

molecular target: Jak2 (UniProt O60674); assay: as above
Sequence (O60674 whole entry, looked up): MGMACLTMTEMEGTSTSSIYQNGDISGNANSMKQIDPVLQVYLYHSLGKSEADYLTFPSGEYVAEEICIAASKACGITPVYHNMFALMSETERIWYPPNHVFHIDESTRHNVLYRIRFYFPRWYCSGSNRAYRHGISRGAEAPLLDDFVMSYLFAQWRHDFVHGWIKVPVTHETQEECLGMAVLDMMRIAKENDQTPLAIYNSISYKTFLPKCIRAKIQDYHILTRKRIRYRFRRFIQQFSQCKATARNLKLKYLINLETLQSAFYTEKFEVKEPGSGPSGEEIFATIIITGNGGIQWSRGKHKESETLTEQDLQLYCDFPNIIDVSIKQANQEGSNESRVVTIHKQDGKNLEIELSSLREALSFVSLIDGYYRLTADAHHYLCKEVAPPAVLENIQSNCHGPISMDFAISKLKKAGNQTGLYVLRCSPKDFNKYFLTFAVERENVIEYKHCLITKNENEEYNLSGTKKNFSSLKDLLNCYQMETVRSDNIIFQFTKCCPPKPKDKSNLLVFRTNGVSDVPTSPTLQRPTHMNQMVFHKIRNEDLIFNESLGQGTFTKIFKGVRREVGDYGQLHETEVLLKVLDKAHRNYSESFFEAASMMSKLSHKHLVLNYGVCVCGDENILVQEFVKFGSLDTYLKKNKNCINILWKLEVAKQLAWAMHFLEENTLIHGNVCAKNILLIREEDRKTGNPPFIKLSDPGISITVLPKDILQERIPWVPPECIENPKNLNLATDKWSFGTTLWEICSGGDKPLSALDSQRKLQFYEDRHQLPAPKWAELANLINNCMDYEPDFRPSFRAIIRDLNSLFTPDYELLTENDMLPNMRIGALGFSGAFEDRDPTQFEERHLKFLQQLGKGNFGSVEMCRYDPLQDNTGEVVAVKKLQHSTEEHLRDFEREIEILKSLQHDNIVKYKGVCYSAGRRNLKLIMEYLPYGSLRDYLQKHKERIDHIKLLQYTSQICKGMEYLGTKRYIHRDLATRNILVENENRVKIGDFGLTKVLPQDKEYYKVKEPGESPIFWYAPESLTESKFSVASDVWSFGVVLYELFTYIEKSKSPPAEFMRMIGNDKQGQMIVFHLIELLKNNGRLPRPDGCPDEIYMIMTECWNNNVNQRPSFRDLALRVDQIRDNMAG

Sequence	phosphorylation enrichment
LEVETYRRLLD [KRT12_Y429_I426V]	0.749
KGKLIYLLRDS [NXPE1_Y350_G353R]	0.692
AAVLNYKAGRD [GRIN2A_Y737]	0.469
QVMDGYPIPIG [MMP14_Y353_M355I]	0.554
CSHKFYGKQCC [ADAMTS16_Y1211]	0.513
MHDSNYVSKGS [PDGFRA_Y849]	0.55
KDLPNYNWKSF [KISS1_Y112_N115K]	0.918
RREGVYRNNID [PTEN_Y46_L42R]	0.778
FLNSIYQSRDE [ROS1_Y2227_K2228Q]	0.791
FSAGTYPRMEE [SYCN_Y108_L111M]	0.575
PSSNLYFRWLT [CNGA3_Y168_YF]	3.54
IDAVCYFRMEN [NPHS2_Y194_I192V_YF]	2.74
HNVAIYEGYAL [ACTC1_Y168_P166A]	2.17
DEDFLCREELA [POR_Y575_Y575C_YF]	1.33
YEEDSYSHVMA [FDPS_Y388_I391V]	0.944
ASTHVYQIMNH [ITK_Y588]	0.55
EDGFAYVPLKD [PRIM2_Y208]	1.18

Sequence	phosphorylation enrichment
DDSSAYRSVDE [BCKDHA_Y345]	1.12
ARVDTYCRHNF [HLA-DRB1_Y107_A103R_YF]	0.731
LTFHMYADPNI [SOS1_Y618_F623I_YF]	2.23
FGMQLYQKFMH [GRB14_Y347_N349K_YF]	0.94
ADYYDYGRGLS [KHDRBS3_Y304_H306R]	6.26
EMFNPCYGLFE [NEDD4L_Y679_Y679C]	1.2
QGFDTYFGYLL [ARSB_Y165_R160Q]	5.92
SENYTYIWWLN [PSG4_Y271_K267E]	1.27
NRLNDYIFSFD [RARS1_Y516]	0.977
KPLMPYMRYSR [SMARCE1_Y73]	0.626
RPYRPYIIRGM [LRP5_Y1531]	0.826
SSWPGYVRPLP [HSPB1_Y54]	2.22
FRARAYSFRGP [CHGA_Y381_G382S]	0.628
PQGVGYPPQQQ [EP300_Y2219]	0.915
RGYRQDAYDGK [HLA-A_Y140]	0.859
SVTYTYSPALN [TP53_Y126_C124Y]	0.997

molecular target: MERTK (UniProt Q12866); assay: as above
Sequence (Q12866 whole entry, looked up): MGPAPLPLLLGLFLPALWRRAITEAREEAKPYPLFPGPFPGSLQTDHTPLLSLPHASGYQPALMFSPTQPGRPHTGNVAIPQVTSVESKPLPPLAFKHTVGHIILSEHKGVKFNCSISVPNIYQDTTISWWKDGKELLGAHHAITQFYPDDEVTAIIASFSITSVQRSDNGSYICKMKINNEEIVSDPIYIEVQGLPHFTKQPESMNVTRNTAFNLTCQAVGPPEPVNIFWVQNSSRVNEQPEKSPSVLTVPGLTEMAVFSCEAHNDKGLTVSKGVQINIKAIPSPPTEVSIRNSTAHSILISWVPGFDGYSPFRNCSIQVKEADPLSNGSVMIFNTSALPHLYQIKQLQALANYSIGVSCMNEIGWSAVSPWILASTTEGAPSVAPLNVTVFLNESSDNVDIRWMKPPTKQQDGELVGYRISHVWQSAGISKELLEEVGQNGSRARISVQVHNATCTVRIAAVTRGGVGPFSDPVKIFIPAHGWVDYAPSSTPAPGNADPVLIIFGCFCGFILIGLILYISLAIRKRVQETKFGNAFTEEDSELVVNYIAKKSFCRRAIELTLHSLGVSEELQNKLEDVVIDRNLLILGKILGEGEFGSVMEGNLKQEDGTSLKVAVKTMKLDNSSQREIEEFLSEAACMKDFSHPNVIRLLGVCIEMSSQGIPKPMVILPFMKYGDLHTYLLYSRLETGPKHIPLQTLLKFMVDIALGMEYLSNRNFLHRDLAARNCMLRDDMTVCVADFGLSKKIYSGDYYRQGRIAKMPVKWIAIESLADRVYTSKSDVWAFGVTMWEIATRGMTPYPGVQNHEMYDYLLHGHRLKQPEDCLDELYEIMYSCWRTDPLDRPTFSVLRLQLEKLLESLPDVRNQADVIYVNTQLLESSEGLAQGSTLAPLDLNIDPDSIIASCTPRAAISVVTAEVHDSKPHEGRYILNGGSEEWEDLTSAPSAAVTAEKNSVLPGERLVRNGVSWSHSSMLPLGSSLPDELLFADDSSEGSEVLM

Sequence	phosphorylation enrichment
LEVETYRRLLD [KRT12_Y429_I426V]	0.344
KGKLIYLLRDS [NXPE1_Y350_G353R]	0.443
AAVLNYKAGRD [GRIN2A_Y737]	0.41
QVMDGYPIPIG [MMP14_Y353_M355I]	0.482
CSHKFYGKQCC [ADAMTS16_Y1211]	0.396
MHDSNYVSKGS [PDGFRA_Y849]	0.451
KDLPNYNWKSF [KISS1_Y112_N115K]	0.455
RREGVYRNNID [PTEN_Y46_L42R]	0.752
FLNSIYQSRDE [ROS1_Y2227_K2228Q]	0.489
FSAGTYPRMEE [SYCN_Y108_L111M]	0.365
PSSNLYFRWLT [CNGA3_Y168_YF]	4.73
IDAVCYFRMEN [NPHS2_Y194_I192V_YF]	0.715
HNVAIYEGYAL [ACTC1_Y168_P166A]	6.65
DEDFLCREELA [POR_Y575_Y575C_YF]	0.501
YEEDSYSHVMA [FDPS_Y388_I391V]	0.464
ASTHVYQIMNH [ITK_Y588]	1.61
EDGFAYVPLKD [PRIM2_Y208]	0.42

Sequence	phosphorylation enrichment
DDSSAYRSVDE [BCKDHA_Y345]	0.485
ARVDTYCRHNF [HLA-DRB1_Y107_A103R_YF]	0.486
LTFHMYADPNI [SOS1_Y618_F623I_YF]	0.583
FGMQLYQKFMH [GRB14_Y347_N349K_YF]	2.11
ADYYDYGRGLS [KHDRBS3_Y304_H306R]	3.88
EMFNPCYGLFE [NEDD4L_Y679_Y679C]	0.765
QGFDTYFGYLL [ARSB_Y165_R160Q]	4.3
SENYTYIWWLN [PSG4_Y271_K267E]	0.605
NRLNDYIFSFD [RARS1_Y516]	0.475
KPLMPYMRYSR [SMARCE1_Y73]	0.467
RPYRPYIIRGM [LRP5_Y1531]	0.852
SSWPGYVRPLP [HSPB1_Y54]	0.407
FRARAYSFRGP [CHGA_Y381_G382S]	0.601
PQGVGYPPQQQ [EP300_Y2219]	0.619
RGYRQDAYDGK [HLA-A_Y140]	0.436
SVTYTYSPALN [TP53_Y126_C124Y]	2.79

system: c-Abl (mouse); assay: as above

Sequence	phosphorylation enrichment
LEVETYRRLLD [KRT12_Y429_I426V]	0.551
KGKLIYLLRDS [NXPE1_Y350_G353R]	0.666
AAVLNYKAGRD [GRIN2A_Y737]	0.389
QVMDGYPIPIG [MMP14_Y353_M355I]	0.46
CSHKFYGKQCC [ADAMTS16_Y1211]	0.505
MHDSNYVSKGS [PDGFRA_Y849]	0.508
KDLPNYNWKSF [KISS1_Y112_N115K]	0.72
RREGVYRNNID [PTEN_Y46_L42R]	0.783
FLNSIYQSRDE [ROS1_Y2227_K2228Q]	0.775
FSAGTYPRMEE [SYCN_Y108_L111M]	0.501
PSSNLYFRWLT [CNGA3_Y168_YF]	0.822
IDAVCYFRMEN [NPHS2_Y194_I192V_YF]	1.5
HNVAIYEGYAL [ACTC1_Y168_P166A]	3.44
DEDFLCREELA [POR_Y575_Y575C_YF]	0.821
YEEDSYSHVMA [FDPS_Y388_I391V]	0.696
ASTHVYQIMNH [ITK_Y588]	0.623
EDGFAYVPLKD [PRIM2_Y208]	0.86

Sequence	phosphorylation enrichment
DDSSAYRSVDE [BCKDHA_Y345]	1.01
ARVDTYCRHNF [HLA-DRB1_Y107_A103R_YF]	0.677
LTFHMYADPNI [SOS1_Y618_F623I_YF]	1.57
FGMQLYQKFMH [GRB14_Y347_N349K_YF]	0.773
ADYYDYGRGLS [KHDRBS3_Y304_H306R]	0.967
EMFNPCYGLFE [NEDD4L_Y679_Y679C]	1.03
QGFDTYFGYLL [ARSB_Y165_R160Q]	0.92
SENYTYIWWLN [PSG4_Y271_K267E]	0.829
NRLNDYIFSFD [RARS1_Y516]	0.789
KPLMPYMRYSR [SMARCE1_Y73]	0.635
RPYRPYIIRGM [LRP5_Y1531]	0.587
SSWPGYVRPLP [HSPB1_Y54]	0.54
FRARAYSFRGP [CHGA_Y381_G382S]	0.573
PQGVGYPPQQQ [EP300_Y2219]	0.655
RGYRQDAYDGK [HLA-A_Y140]	0.859
SVTYTYSPALN [TP53_Y126_C124Y]	1.78
